Here are results for one substance from paper PMC10258763.

The assay has as its target modifying region of human fatty acid synthase (hFASN) isolated by TEV cleavage of the engineered full-length protein (human) (UniProt P49327). The assay can be described thus: cryo-EM structure; hFASN modifying region after TEV cleavage, 0.8 mg/mL, 1 mM NADPH, 1 mM DTT; also with 13.75 µM Denifanstat; plunge-frozen on holey gold grids, Titan Krios.

modifying region of human fatty acid synthase (hFASN) isolated by TEV cleavage of the engineered full-length protein, sequence (P49327 855-2511, change not shown): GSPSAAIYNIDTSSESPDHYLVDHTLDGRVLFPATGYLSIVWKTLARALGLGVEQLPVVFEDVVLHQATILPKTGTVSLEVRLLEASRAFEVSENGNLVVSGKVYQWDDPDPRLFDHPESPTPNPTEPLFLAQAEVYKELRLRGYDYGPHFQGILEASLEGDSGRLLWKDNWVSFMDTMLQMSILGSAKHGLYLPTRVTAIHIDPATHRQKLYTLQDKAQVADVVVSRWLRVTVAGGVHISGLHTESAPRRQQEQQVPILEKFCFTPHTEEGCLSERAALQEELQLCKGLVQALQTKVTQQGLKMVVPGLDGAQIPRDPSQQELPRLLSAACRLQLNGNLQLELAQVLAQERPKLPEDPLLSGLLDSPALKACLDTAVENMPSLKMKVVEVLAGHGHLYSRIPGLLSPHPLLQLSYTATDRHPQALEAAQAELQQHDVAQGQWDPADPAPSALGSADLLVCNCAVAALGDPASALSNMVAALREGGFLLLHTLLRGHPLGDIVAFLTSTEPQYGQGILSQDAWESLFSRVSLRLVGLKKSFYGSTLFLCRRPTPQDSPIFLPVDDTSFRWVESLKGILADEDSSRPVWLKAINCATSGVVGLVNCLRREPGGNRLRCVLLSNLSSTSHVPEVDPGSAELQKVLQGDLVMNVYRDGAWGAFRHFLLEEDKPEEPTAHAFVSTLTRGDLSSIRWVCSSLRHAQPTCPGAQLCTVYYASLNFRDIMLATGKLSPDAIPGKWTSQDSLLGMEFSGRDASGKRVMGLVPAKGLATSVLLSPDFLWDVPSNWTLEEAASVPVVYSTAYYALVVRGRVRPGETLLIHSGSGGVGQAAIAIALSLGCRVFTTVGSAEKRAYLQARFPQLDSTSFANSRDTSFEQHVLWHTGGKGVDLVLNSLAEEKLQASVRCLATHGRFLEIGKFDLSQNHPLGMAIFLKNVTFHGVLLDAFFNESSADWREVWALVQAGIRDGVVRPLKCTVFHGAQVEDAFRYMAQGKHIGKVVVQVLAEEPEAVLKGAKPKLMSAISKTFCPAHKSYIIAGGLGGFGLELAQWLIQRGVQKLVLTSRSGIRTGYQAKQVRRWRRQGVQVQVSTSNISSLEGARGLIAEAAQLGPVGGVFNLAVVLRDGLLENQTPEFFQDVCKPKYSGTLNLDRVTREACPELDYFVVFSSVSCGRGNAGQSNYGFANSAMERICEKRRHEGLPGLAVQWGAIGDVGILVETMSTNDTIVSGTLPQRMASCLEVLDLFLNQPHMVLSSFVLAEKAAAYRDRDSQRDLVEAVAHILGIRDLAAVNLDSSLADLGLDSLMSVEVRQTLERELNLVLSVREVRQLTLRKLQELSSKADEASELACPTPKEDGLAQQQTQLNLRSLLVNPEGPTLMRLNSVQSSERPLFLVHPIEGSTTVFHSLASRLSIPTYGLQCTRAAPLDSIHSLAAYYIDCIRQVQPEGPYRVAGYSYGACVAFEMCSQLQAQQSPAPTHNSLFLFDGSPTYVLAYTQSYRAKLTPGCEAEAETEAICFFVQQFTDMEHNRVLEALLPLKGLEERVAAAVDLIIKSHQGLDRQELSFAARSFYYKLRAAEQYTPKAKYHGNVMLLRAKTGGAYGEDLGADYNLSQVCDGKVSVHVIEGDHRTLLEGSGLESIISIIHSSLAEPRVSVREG

“modifying region of human fatty acid synthase (hFASN) isolated by TEV cleavage of the engineered full-length protein (from UniProt P49327 855-2511) (domain or fragment)”: the stoichiometry N – broadly, the number of molecules, sites or subunits per partner or assembly – came out at 2.
